“Also recorded” adds a separate entry of the source.
B1: lorvotuzumab mertansine: antibody-drug conjugate comprised of the CD56-binding monoclonal antibody huN901, the SPP linker, and the maytansinoid cytotoxic agent DM1 (conjugate, chains of the INN, looked up)
VH: QVQLVESGGGVVQPGRSLRLSCAASGFTFSSFGMHWVRQAPGKGLEWVAYISSGSFTIYYADSVKGRFTISRDNSKNTLYLQMNSLRAEDTAVYYCARMRKGYAMDYWGQGTLVTVSS
VL: DVVMTQSPLSLPVTLGQPASISCRSSQIIIHSDGNTYLEWFQQRPGQSPRRLIYKVSNRFSGVPDRFSGSGSGTDFTLKISRVEAEDVGVYYCFQGSHVPHTFGQGTKVEIK
modifications: SPP linker, DM1 maytansinoid

Experiments:
[1] = test system: COLO 720E human ovarian carcinoma xenografts; assay: Anti-tumor effect of lorvotuzumab mertansine and topotecan in established subcutaneous COLO 720E xenografts (Example 2); type: in vivo, athymic nude mice; set-up: key to anti-tumor activity rating (NCI standards): Percent T/C values less than or equal to 42% and/or LCK values of 0.5 or greater are considered active; percent T/C values less than 10% are considered highly active; conditions: for mice tumor free until the end of the study: day 120, six mice per group; for % of tumor growth for treated vs. control (T/C) / anti-tumor activity rating (NCI standards): lorvotuzumab mertansine 11 mg/kg iv once weekly x3, topotecan 0.7 mg/kg ip 5/2/5 schedule, combination same doses
Source text: Mice were inoculated with human ovarian cancer cell lines and allowed to become established (average tumor size of about 100 mm^3) prior to treatment. Conjugate dosing is described based on antibody concentration. Efficacy is reported as both the % of tumor growth for treated vs. control (% T/C) and log cell kill (LCK) determined from the tumor doubling time and the tumor growth delay due to the treatment. […] Athymic nude mice were inoculated with COLO 720E human ovarian cancer cells (1×10^7 cells/animal) injected subcutaneously into the right flank. When the tumors reached about 115 mm^3 in size (12 days after tumor cell inoculation), the mice were randomly divided into four groups (six animals per group). A control group was treated with a single intravenous injection of PBS. A second group of mice were treated with the single agent lorvotuzumab mertansine at a dose of 11 mg/kg once weekly for three weeks (days 12, 19 and 26 post tumor cell inoculation) administered intravenously. The third group received single-agent topotecan administered intraperitoneally at a dose of 0.7 mg/kg on a 5/2/5 schedule (daily×5, 2 days off, daily×5; days 12-16 and 19-23 post tumor cell inoculation). A fourth group was treated with the combination of lorvotuzumab mertansine and topotecan with the same doses and routes of administration as for individual treatments. Tumor growth was monitored by measuring tumor size twice per week. Tumor size was calculated with the formula: length×width×height×½.

[2] = test system: COLO 720E human ovarian carcinoma xenografts; assay: Anti-tumor effect of lorvotuzumab mertansine and gemcitabine in established subcutaneous COLO 720E xenografts (Example 1); type: in vivo, athymic nude mice; conditions: for % of tumor growth for treated vs. control (T/C) / anti-tumor activity rating (NCI standards): lorvotuzumab mertansine 11 mg/kg iv once weekly x3, gemcitabine 80 mg/kg ip every three days x4, combination same doses; for tumor regressions (any): six mice per group, single-agent groups
Source text: (§1) Mice were inoculated with human ovarian cancer cell lines and allowed to become established (average tumor size of about 100 mm^3) prior to treatment. Conjugate dosing is described based on antibody concentration. Efficacy is reported as both the % of tumor growth for treated vs. control (% T/C) and log cell kill (LCK) determined from the tumor doubling time and the tumor growth delay due to the treatment.
The anti-tumor effect of a combination of lorvotuzumab mertansine and gemcitabine was evaluated in an established subcutaneous xenograft model of ovarian cancer. Athymic nude mice were inoculated with COLO 720E human ovarian cancer cells (1×10^7 cells/animal) injected subcutaneously into the right flank. When the tumors reached about 110 mm^3 in size (10 days after tumor cell inoculation), the mice were randomly divided into four groups (six animals per group). A control group was treated with a single intravenous injection of PBS. A second group of mice were treated with the single agent lorvotuzumab mertansine at a dose of 11 mg/kg once weekly for three weeks (days 11, 18 and 25 post tumor cell inoculation) administered intravenously. The third group received single-agent gemcitabine administered intraperitoneally at a dose of 80 mg/kg every three days for a total of four injections (days 11, 14, 17 and 20 post tumor cell inoculation). A fourth group was treated with the combination of lorvotuzumab mertansine and gemcitabine with the same doses and routes of administration as for individual treatments. Tumor growth was monitored by measuring tumor size twice per week. Tumor size was calculated with the formula: length×width×height×½.

[3] = test system: human xenograft preclinical models for ovarian cancer; conditions: no data given; cited from earlier work
[4] = test system: COLO 720E human ovarian carcinoma xenografts; assay: Anti-tumor effect of lorvotuzumab mertansine and DOXIL in established subcutaneous COLO 720E xenografts (Example 3); type: in vivo, athymic nude mice; set-up: key to anti-tumor activity rating (NCI standards): Percent T/C values less than or equal to 42% and/or LCK values of 0.5 or greater are considered active; percent T/C values less than 10% are considered highly active
Source text: as §1
The anti-tumor effect of a combination of lorvotuzumab mertansine and DOXIL® (i.e., PEGylated Liposomal Doxorubicin (PLD)) was evaluated in an established subcutaneous xenograft model of ovarian cancer. Athymic nude mice were inoculated with COLO 720E human ovarian cancer cells (1×10^7 cells/animal) injected subcutaneously into the right flank. When the tumors reached about 100 mm^3 in size (10 days after tumor cell inoculation), the mice were randomly divided into four groups (six animals per group). A control group was treated with a single intravenous injection of PBS. A second group of mice were treated with the single agent lorvotuzumab mertansine at a dose of 11 mg/kg once weekly for three weeks (days 10, 17 and […] post tumor cell inoculation) administered intravenously. The third group received single-agent DOXIL® at a dose of 11 mg/kg (single injection on day 10 post tumor cell inoculation) administered intravenously. A fourth group was treated with the combination of lorvotuzumab mertansine and DOXIL® with the same doses and routes of administration as for individual treatments. Tumor growth was monitored by measuring tumor size twice per week. Tumor size was calculated with the formula: length×width×height× 1/2.

[5] = lorvotuzumab mertansine 11 mg/kg iv once weekly x3, DOXIL 11 mg/kg iv single injection, combination same doses

Molecule | mice tumor free until the end of the study [1] | % of tumor growth for treated vs. control (T/C) [1] [%] | anti-tumor activity rating (NCI standards) [1] | complete regression (CR) ([1]; six mice per group) | % of tumor growth for treated vs. control (T/C) [2] [%] | anti-tumor activity rating (NCI standards) [2] | tumor regressions (any) [2] | partial regression (PR) ([1]; six mice per group) | antitumor activity as a single agent [3] | mice remaining tumor free to the end of the study ([4]; day 118, six mice per group) | % of tumor growth for treated vs. control (T/C) [4, 5] [%] | anti-tumor activity rating (NCI standards) [4, 5] | complete regressions (CR) ([4]; six mice per group)
CC[C@@]1(O)C(=O)OCc2c1cc1n(c2=O)Cc2cc3c(CN(C)C)c(O)ccc3nc2-1 [topotecan, reference compound] | no tumor-free mice | 26 | active | one of six | – | – | – | – | – | – | – | – | –
Nc1ccn([C@@H]2O[C@H](CO)[C@@H](O)C2(F)F)c(=O)n1 [gemcitabine, reference compound] | – | – | – | – | 77 | inactive | no regressions | – | – | – | – | – | –
B1 | no tumor-free mice | 59 | inactive | – | 38 | modest antitumor activity; also recorded: active | no tumor regressions | one of six | marked antitumor activity | one | 14 | active | one and one of six

Source: patent publication US20120269827A1, “Compositions and Methods for Treatment of Ovarian, Peritoneal, and Fallopian Tube Cancer” (ImmunoGen, Inc., priority 2011, published 2012)
